In the test the target is T1, serotonin 5HT1A receptor (Homo sapiens, UniProt P08908).
T1 construct: expressed in transfected cells; host or cells: Saccharomyces cerevisiae strains MMY9 and MMY11, plasmid pDT-PGK-5-HT1A
T1 sequence (P08908 1-422): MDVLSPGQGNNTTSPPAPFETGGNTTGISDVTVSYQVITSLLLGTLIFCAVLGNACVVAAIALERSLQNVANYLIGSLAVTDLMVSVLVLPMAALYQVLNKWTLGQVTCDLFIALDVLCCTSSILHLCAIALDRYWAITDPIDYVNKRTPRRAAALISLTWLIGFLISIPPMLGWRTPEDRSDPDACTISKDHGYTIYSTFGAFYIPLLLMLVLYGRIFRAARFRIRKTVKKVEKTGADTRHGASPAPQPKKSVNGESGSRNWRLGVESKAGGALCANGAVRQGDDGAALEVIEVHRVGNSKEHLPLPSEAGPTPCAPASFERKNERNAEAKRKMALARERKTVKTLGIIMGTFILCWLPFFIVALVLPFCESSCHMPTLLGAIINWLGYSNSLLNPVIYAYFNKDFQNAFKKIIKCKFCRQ
The test is described as follows: CPRG assay, MMY9 cells expressing 5-HT1A receptor plus Gα subunit. It counts as cell-based. Details: key to coupling class where no EC50 could be fitted: weak activation insufficient to carry out curve-fitting was detected; NC: no coupling was detected. As for the experimental part: Assay for combined FUS1-lacZ and FUS1-HIS3 Expression. In vivo assays of reporter gene induction (CPRG assays) were carried out by suspending cells to 0.02 OD600 in 200 μl SC-glucose (2%) lacking tryptophan, uracil and histidine. This medium was supplemented with agonists, and additionally 10 mM 3-aminotriazole and the β-galactosidase (lacZ) substrate chlorophenolred-β-D-galactopyranoside (CPRG; Boehringer) to a concentration of 0.1 mg/ml. To visualise the colour change reaction, the medium was buffered to pH 7 with 0.1 M sodium phosphate. The assay was conducted in a 96-well microtitre plate format. Plates were incubated for 24 hours without agitation, and absorbance at 570 nm was determined using a Victor microtitre plate reader (Wallac). EC50 values (+/−standard error) were estimated by curve-fitting, using the Robosage software package.
This experiment illustrates that, for certain receptors, the efficiency of coupling to the yeast pheromone response pathway can be enhanced by creating chimeras between yeast and mammalian Gα subunits. […] Agonist-dependent activation of FUS1-lacZ was determined by incubating cells in medium supplemented with the chromogenic, cell-permeant β-galacosidase (lacZ) substrate, chlorophenolred-β-D-galactopyranoside (CPRG; Boehringer Mannheim). […]

One molecule from patent US6509447B1, “G protein chimeras and methods of screening compounds” (Glaxo Welcome Inc., priority 1997, dated 2003) can be followed below.

B1: Gpa1p: endogenous yeast Gα subunit, product of the GPA1 gene (protein, UniProt P08539 2-472, looked up)
Guanine nucleotide-binding …: GCTVSTQTIGDESDPFLQNKRANDVIEQSLQLEKQRDKNEIKLLLLGAGESGKSTVLKQLKLLHQGGFSHQERLQYAQVIWADAIQSMKILIIQARKLGIQLDCDDPINNKDLFACKRILLKAKALDYINASVAGGSDFLNDYVLKYSERYETRRRVQSTGRAKAAFDEDGNISNVKSDTDRDAETVTQNEDADRNNSSRINLQDICKDLNQEGDDQMFVRKTSREIQGQNRRNLIHEDIAKAIKQLWNNDKGIKQCFARSNEFQLEGSAAYYFDNIEKFASPNYVCTDEDILKGRIKTTGITETEFNIGSSKFKVLDAGGQRSERKKWIHCFEGITAVLFVLAMSEYDQMLFEDERVNRMHESIMLFDTLLNSKWFKDTPFILFLNKIDLFEEKVKSMPIRKYFPDYQGRVGDAEAGLKYFEKIFLSLNKTNKPIYVKRTCATDTQTMKFVLSAVTDLIIQQNLKKIGII
As for B1, the “agonist-dependent induction of FUS1-LacZ / coupling, in words” value is recorded as “failed to signal” and the “coupling class where no EC50 could be fitted” value was “NC”.
